Drawing on paper PMC8431453, this text covers Met Y1234/1235 phosphorylation in EHMES-1 cells, cell-based ELISA, and Met Y1234/1235 phosphorylation in EHMES-1 cells, cell-based ELISA, compared with 30 nM wild-type NK1 (fold of 30 nM wild-type NK1) for four substances.

The assay concerns the target Met receptor tyrosine kinase (human (endogenous in EHMES-1)) (UniProt P08581).
Chain of UniProt P08581 (P08581 25-1390): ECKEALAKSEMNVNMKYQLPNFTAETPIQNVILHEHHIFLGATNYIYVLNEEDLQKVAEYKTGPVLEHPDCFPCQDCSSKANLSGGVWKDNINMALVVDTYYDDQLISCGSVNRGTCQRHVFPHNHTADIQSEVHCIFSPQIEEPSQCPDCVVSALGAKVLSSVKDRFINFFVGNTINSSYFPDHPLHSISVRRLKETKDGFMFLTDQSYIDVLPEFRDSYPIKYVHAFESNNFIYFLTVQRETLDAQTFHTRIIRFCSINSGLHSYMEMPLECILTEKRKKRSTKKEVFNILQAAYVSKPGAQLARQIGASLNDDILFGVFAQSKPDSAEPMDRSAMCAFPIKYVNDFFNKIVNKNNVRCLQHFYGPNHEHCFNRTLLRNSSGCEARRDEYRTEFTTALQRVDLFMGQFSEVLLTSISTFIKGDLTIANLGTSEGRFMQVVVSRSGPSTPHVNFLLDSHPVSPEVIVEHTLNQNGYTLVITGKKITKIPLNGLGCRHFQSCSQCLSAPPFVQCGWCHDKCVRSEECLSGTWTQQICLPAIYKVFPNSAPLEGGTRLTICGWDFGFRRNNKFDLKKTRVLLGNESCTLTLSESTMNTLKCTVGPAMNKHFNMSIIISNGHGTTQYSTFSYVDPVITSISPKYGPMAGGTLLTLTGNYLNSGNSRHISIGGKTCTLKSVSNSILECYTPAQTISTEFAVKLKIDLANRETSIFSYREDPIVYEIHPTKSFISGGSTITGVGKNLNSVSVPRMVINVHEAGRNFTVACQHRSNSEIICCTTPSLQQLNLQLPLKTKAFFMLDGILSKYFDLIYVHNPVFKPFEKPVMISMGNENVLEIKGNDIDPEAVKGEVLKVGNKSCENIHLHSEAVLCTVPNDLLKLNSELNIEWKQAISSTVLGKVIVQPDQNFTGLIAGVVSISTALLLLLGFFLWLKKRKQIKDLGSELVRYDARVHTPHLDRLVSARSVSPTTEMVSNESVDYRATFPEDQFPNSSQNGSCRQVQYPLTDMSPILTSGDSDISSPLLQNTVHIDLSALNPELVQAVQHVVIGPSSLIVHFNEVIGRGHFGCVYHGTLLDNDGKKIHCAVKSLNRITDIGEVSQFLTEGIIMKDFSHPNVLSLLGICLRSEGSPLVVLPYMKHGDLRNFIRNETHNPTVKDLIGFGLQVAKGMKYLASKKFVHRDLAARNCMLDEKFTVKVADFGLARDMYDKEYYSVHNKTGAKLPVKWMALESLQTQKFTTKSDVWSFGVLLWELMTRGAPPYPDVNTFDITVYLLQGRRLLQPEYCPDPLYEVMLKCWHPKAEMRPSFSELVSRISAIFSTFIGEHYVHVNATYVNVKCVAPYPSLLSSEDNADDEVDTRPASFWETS

With K144A mutant NK1 (ligand), the Met Y1234/1235 phosphorylation in EHMES-1 cells, cell-based ELISA, at 30 nM, compared with wild-type NK1 came out at 52.2%. As for “wild-type hepatocyte growth factor (two-chain HGF) (from UniProt P14210-3 32-489) (ligand)”, the Met Y1234/1235 phosphorylation in EHMES-1 cells, cell-based ELISA, compared with 30 nM wild-type NK1 (fold of 30 nM wild-type NK1) came to 2.5. As to N127A mutant NK1 (ligand), the Met Y1234/1235 phosphorylation in EHMES-1 cells, cell-based ELISA, at 30 nM, compared with wild-type NK1 is 8.3%. Substance V140A mutant NK1 (ligand) gave a Met Y1234/1235 phosphorylation in EHMES-1 cells, cell-based ELISA, at 30 nM, compared with wild-type NK1 of 23.8%.
